According to the supplement of paper PMC9112550, “Optimization of the antimicrobial peptide Bac7 by deep mutational scanning” (BMC Biology, 2022):

System: Escherichia coli TOP10
Experiment: shrunken log2 fold change of peptide-encoding DNA abundance (4.5 h post-induction vs induction); higher = less antimicrobial activity (less host growth inhibition)
Conditions: time post-induction: 4.5 h; library: site-saturation at positions 5, 18, 19, 20
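Note: peptides expressed intracellularly from a pBAD plasmid library in pooled LB shake-flask culture, induced with 0.3% L-arabinose, DNA abundance read by NGS, three biological replicates, DESeq2 with apeglm shrinkage.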

## RRIRDRPPRLPRPRPRPLLVPRP
  shrunken log2 fold change: 0.134

## RRIRMRPPRLPRPRPRPAVRPRP
  shrunken log2 fold change: 0.835

## RRIRPRPPRLPRPRPRPRMHPRP
  shrunken log2 fold change: 0.115

## RRIRTRPPRLPRPRPRPTSTPRP
  shrunken log2 fold change: -0.0605

## RRIRRRPPRLPRPRPRPDYDPRP
  shrunken log2 fold change: -0.0449

## RRIRLRPPRLPRPRPRPNWIPRP
  shrunken log2 fold change: -0.583

## RRIRARPPRLPRPRPRPLVVPRP
  shrunken log2 fold change: 0.194

## RRIRDRPPRLPRPRPRPAQRPRP
  shrunken log2 fold change: 0.152

## RRIRTRPPRLPRPRPRPQFYPRP
  shrunken log2 fold change: -0.791

## RRIRWRPPRLPRPRPRPARVPRP
  shrunken log2 fold change: 0.413

## RRIRARPPRLPRPRPRPRQIPRP
  shrunken log2 fold change: 0.313

## RRIRRRPPRLPRPRPRPHWRPRP
  shrunken log2 fold change: 0.0155

## RRIRMRPPRLPRPRPRPMEIPRP
  shrunken log2 fold change: -0.129

## RRIRYRPPRLPRPRPRPIQKPRP
  shrunken log2 fold change: -0.00992

## RRIRRRPPRLPRPRPRPRCVPRP
  shrunken log2 fold change: 0.402

## RRIRVRPPRLPRPRPRPPYFPRP
  shrunken log2 fold change: 0.0499

## RRIRNRPPRLPRPRPRPRMLPRP
  shrunken log2 fold change: 0.132

## RRIRFRPPRLPRPRPRPSEKPRP
  shrunken log2 fold change: 0.0358

## RRIRDRPPRLPRPRPRPKNAPRP
  shrunken log2 fold change: -0.0796

## RRIRWRPPRLPRPRPRPSHVPRP
  shrunken log2 fold change: -0.167

## RRIRSRPPRLPRPRPRPHIMPRP
  shrunken log2 fold change: -0.393

## RRIRVRPPRLPRPRPRPGGWPRP
  shrunken log2 fold change: 0.72

## RRIRPRPPRLPRPRPRPKIRPRP
  shrunken log2 fold change: -0.137

## RRIRVRPPRLPRPRPRPKWHPRP
  shrunken log2 fold change: -0.123

## RRIRCRPPRLPRPRPRPYMLPRP
  shrunken log2 fold change: -1.06

## RRIRKRPPRLPRPRPRPETGPRP
  shrunken log2 fold change: 0.226

## RRIRMRPPRLPRPRPRPPWWPRP
  shrunken log2 fold change: 1.01

## RRIRYRPPRLPRPRPRPFFWPRP
  shrunken log2 fold change: -0.03

## RRIRLRPPRLPRPRPRPHGRPRP
  shrunken log2 fold change: 0.114

## RRIRNRPPRLPRPRPRPGQTPRP
  shrunken log2 fold change: 0.00913

## RRIRIRPPRLPRPRPRPGMDPRP
  shrunken log2 fold change: -0.295

## RRIRDRPPRLPRPRPRPEMIPRP
  shrunken log2 fold change: 0.0934

## RRIRCRPPRLPRPRPRPMTHPRP
  shrunken log2 fold change: -0.377

## RRIRSRPPRLPRPRPRPGHTPRP
  shrunken log2 fold change: 0.0898

## RRIRLRPPRLPRPRPRPGKYPRP
  shrunken log2 fold change: -0.282

## RRIRARPPRLPRPRPRPFVDPRP
  shrunken log2 fold change: 0.302

## RRIRQRPPRLPRPRPRPHMAPRP
  shrunken log2 fold change: -0.0694

## RRIRVRPPRLPRPRPRPAKYPRP
  shrunken log2 fold change: -0.575

## RRIRIRPPRLPRPRPRPEADPRP
  shrunken log2 fold change: 0.196

## RRIRLRPPRLPRPRPRPRGAPRP
  shrunken log2 fold change: 0.425

## RRIRRRPPRLPRPRPRPFFRPRP
  shrunken log2 fold change: 0.354

## RRIRLRPPRLPRPRPRPVWHPRP
  shrunken log2 fold change: -0.047

## RRIRTRPPRLPRPRPRPKGVPRP
  shrunken log2 fold change: 0.253

## RRIRQRPPRLPRPRPRPQWCPRP
  shrunken log2 fold change: 0.142

## RRIRVRPPRLPRPRPRPCVKPRP
  shrunken log2 fold change: -0.657

## RRIRIRPPRLPRPRPRPDLRPRP
  shrunken log2 fold change: -0.0147

## RRIRKRPPRLPRPRPRPGSHPRP
  shrunken log2 fold change: 0.0202

## RRIRWRPPRLPRPRPRPNTSPRP
  shrunken log2 fold change: -0.336

## RRIRKRPPRLPRPRPRPTHHPRP
  shrunken log2 fold change: 0.897

## RRIRDRPPRLPRPRPRPTWIPRP
  shrunken log2 fold change: -0.0164

## RRIRERPPRLPRPRPRPDCKPRP
  shrunken log2 fold change: 0.0476

## RRIRHRPPRLPRPRPRPYDEPRP
  shrunken log2 fold change: -0.0392

## RRIRLRPPRLPRPRPRPQSLPRP
  shrunken log2 fold change: -0.0995

## RRIRERPPRLPRPRPRPGASPRP
  shrunken log2 fold change: 0.075

## RRIRSRPPRLPRPRPRPAQNPRP
  shrunken log2 fold change: 0.241

## RRIRLRPPRLPRPRPRPEIEPRP
  shrunken log2 fold change: -0.0912

## RRIRTRPPRLPRPRPRPKRNPRP
  shrunken log2 fold change: 0.366

## RRIRPRPPRLPRPRPRPCMEPRP
  shrunken log2 fold change: -0.106

## RRIRRRPPRLPRPRPRPPKMPRP
  shrunken log2 fold change: 0.286

## RRIRWRPPRLPRPRPRPPFKPRP
  shrunken log2 fold change: 0.331

## RRIRARPPRLPRPRPRPIMGPRP
  shrunken log2 fold change: 0.0143

## RRIRYRPPRLPRPRPRPGYHPRP
  shrunken log2 fold change: -0.00992

## RRIRIRPPRLPRPRPRPGWQPRP
  shrunken log2 fold change: 0.449

## RRIRFRPPRLPRPRPRPYIDPRP
  shrunken log2 fold change: -0.348

## RRIRARPPRLPRPRPRPSEQPRP
  shrunken log2 fold change: 0.248

## RRIRYRPPRLPRPRPRPPIKPRP
  shrunken log2 fold change: -0.518

## RRIRPRPPRLPRPRPRPKGKPRP
  shrunken log2 fold change: -0.135

## RRIRRRPPRLPRPRPRPKHFPRP
  shrunken log2 fold change: 0.3

## RRIRNRPPRLPRPRPRPCIHPRP
  shrunken log2 fold change: -0.355

## RRIRPRPPRLPRPRPRPIYPPRP
  shrunken log2 fold change: -0.269

## RRIRMRPPRLPRPRPRPFRPPRP
  shrunken log2 fold change: -0.16

## RRIRVRPPRLPRPRPRPNLAPRP
  shrunken log2 fold change: 0.0958

## RRIRFRPPRLPRPRPRPFHMPRP
  shrunken log2 fold change: -0.116

## RRIRMRPPRLPRPRPRPLHKPRP
  shrunken log2 fold change: 0.301

## RRIRTRPPRLPRPRPRPASIPRP
  shrunken log2 fold change: -0.13

## RRIRTRPPRLPRPRPRPRYWPRP
  shrunken log2 fold change: -0.156

## RRIRHRPPRLPRPRPRPIHDPRP
  shrunken log2 fold change: -1.81

## RRIRIRPPRLPRPRPRPLWEPRP
  shrunken log2 fold change: 0.223

## RRIRSRPPRLPRPRPRPVPHPRP
  shrunken log2 fold change: 0.0775

## RRIRQRPPRLPRPRPRPERAPRP
  shrunken log2 fold change: 0.53

## RRIRLRPPRLPRPRPRPQDVPRP
  shrunken log2 fold change: -0.0265

## RRIRARPPRLPRPRPRPIATPRP
  shrunken log2 fold change: 1.21

## RRIRSRPPRLPRPRPRPPRFPRP
  shrunken log2 fold change: 0.378

## RRIRSRPPRLPRPRPRPQTKPRP
  shrunken log2 fold change: -0.0915

## RRIRTRPPRLPRPRPRPQSCPRP
  shrunken log2 fold change: 0.057

## RRIRCRPPRLPRPRPRPVWQPRP
  shrunken log2 fold change: -0.063

## RRIRSRPPRLPRPRPRPFMCPRP
  shrunken log2 fold change: -0.255

## RRIRYRPPRLPRPRPRPSNSPRP
  shrunken log2 fold change: -1.15

## RRIRGRPPRLPRPRPRPGRQPRP
  shrunken log2 fold change: 0.654

## RRIRHRPPRLPRPRPRPILFPRP
  shrunken log2 fold change: -0.148

## RRIRFRPPRLPRPRPRPAKTPRP
  shrunken log2 fold change: -0.0138

## RRIRSRPPRLPRPRPRPQFCPRP
  shrunken log2 fold change: -0.16

## RRIRLRPPRLPRPRPRPWMNPRP
  shrunken log2 fold change: -0.0474

## RRIRDRPPRLPRPRPRPKQCPRP
  shrunken log2 fold change: 0.101

## RRIRGRPPRLPRPRPRPENPPRP
  shrunken log2 fold change: 0.842

## RRIRERPPRLPRPRPRPAVDPRP
  shrunken log2 fold change: 0.116

## RRIRYRPPRLPRPRPRPKGYPRP
  shrunken log2 fold change: -0.0889

## RRIRGRPPRLPRPRPRPQYSPRP
  shrunken log2 fold change: 0.0802

## RRIRERPPRLPRPRPRPNSNPRP
  shrunken log2 fold change: -0.828

## RRIRARPPRLPRPRPRPLRPPRP
  shrunken log2 fold change: 1.08

## RRIRIRPPRLPRPRPRPAEWPRP
  shrunken log2 fold change: -0.124

## RRIRMRPPRLPRPRPRPSHAPRP
  shrunken log2 fold change: 0.282

## RRIRVRPPRLPRPRPRPGGTPRP
  shrunken log2 fold change: 0.0237

## RRIRMRPPRLPRPRPRPIWQPRP
  shrunken log2 fold change: -0.224

## RRIRRRPPRLPRPRPRPIVNPRP
  shrunken log2 fold change: -0.205

## RRIRSRPPRLPRPRPRPIIGPRP
  shrunken log2 fold change: -0.276

## RRIRPRPPRLPRPRPRPVWNPRP
  shrunken log2 fold change: -0.109

## RRIRGRPPRLPRPRPRPMMHPRP
  shrunken log2 fold change: 0.456

## RRIRRRPPRLPRPRPRPMCVPRP
  shrunken log2 fold change: -0.0364

## RRIRFRPPRLPRPRPRPYFPPRP
  shrunken log2 fold change: -0.599

## RRIRSRPPRLPRPRPRPLRQPRP
  shrunken log2 fold change: 0.364

## RRIRKRPPRLPRPRPRPAPYPRP
  shrunken log2 fold change: 0.212

## RRIRARPPRLPRPRPRPLAWPRP
  shrunken log2 fold change: 0.721

## RRIRKRPPRLPRPRPRPSSAPRP
  shrunken log2 fold change: 0.214

## RRIRNRPPRLPRPRPRPATGPRP
  shrunken log2 fold change: -0.04

## RRIRYRPPRLPRPRPRPHNWPRP
  shrunken log2 fold change: -0.926

## RRIRTRPPRLPRPRPRPDGSPRP
  shrunken log2 fold change: 0.0485

## RRIRIRPPRLPRPRPRPSSPPRP
  shrunken log2 fold change: -0.746

## RRIRQRPPRLPRPRPRPCPIPRP
  shrunken log2 fold change: 0.0347

## RRIRPRPPRLPRPRPRPRHSPRP
  shrunken log2 fold change: -0.0642

## RRIRGRPPRLPRPRPRPFEVPRP
  shrunken log2 fold change: 0.121

## RRIRTRPPRLPRPRPRPQAAPRP
  shrunken log2 fold change: -0.0432

## RRIRPRPPRLPRPRPRPSLRPRP
  shrunken log2 fold change: 0.0129

## RRIRWRPPRLPRPRPRPQVGPRP
  shrunken log2 fold change: 0.0734

## RRIRQRPPRLPRPRPRPIFFPRP
  shrunken log2 fold change: -0.0319
